# From US11306137B2, “Antibody binding agents that bind Acinetobactor and uses thereof” (priority 2015, dated 2022)
# Entries after “also recorded” stand apart in the source; their conditions may differ.
# B1: C8: mouse IgG1-kappa monoclonal antibody from hybridoma 9.1C8 (ATCC PTA-122177); light chain SEQ ID NO:2, heavy chain SEQ ID NO:3 (antibody, listed as Mus musculus, V domains shown)
# VH: EVQLQQSGPELVKPGASVKISCKASGYSFTGYTMNWVKQSHGKSLEWIGRINPYNGDSFYNQKFKGKATLTVDKSSNIAHMEFLSLTSEDSAVYYCGRSGDGPWFAYWGQGTLVTVSA
# VL: LPLSLPVSLGDQASISCRSSQSIVHNNGNTYLEWYLQKPGQSPKLLIYKVSNRFSGVPDRFSGSGSGTDFTLKISRVEAEDLGVYYCFQGSHVPLTFGAGTKLEIKGSRS
# Experiments:
# [1] = tested on: A. baumannii HUMC1; test: Immunogold transmission electron microscopy; type: binding; conditions: 40,000× magnification
# Method: Mid-log-growth A. baumannii cultures were washed twice incubated with primary antibody (200 μg/mL) at room temperature for 30 min, washed three times in PBS, and resuspended in 50 μL PBS. Goat anti-mouse IgG 20 nm Gold Conjugated (TedPella Inc.) was added to each tube at a final concentration of 0.8 μg/mL and incubated at room temperature for 30 min. Bacteria were washed, pelleted, and resuspended in 500 μL of half-strength Karnovsky's Fixative (2% paraformaldehyde and 2.5% gluteraldehyde in 0.1M phosphate buffer) for 2 hours at room temperature. Following incubation, the pellet was dislodged from the bottom of the tube using a bent stick and allowed to sit in fixative overnight. After overnight fixation, fixative was carefully aspirated off and 1 mL of PBS was carefully added to the tube in order to prevent agitation of the pellet. The pellet was then post-fixed in 1% Osmium Tetroxide for 1 hour and stained with 1% Uranyl Acetate overnight. The pellet was then put in 15% BSA for 2 hours and subsequently subjected to another treatment with the half-strength Karnovsky's Fixative to harden. Pellets were washed in water, dehydrated, embedded in Epon, sectioned, and placed on copper grids. Electron Micrographs were taken on a JEOL JEM-2100 Microscope operating at 80 kV.
# [2] = tested on: A. baumannii HUMC1; test: Lethal bloodstream (i.v. tail-vein) infection model, survival; type: in vivo, mice; conditions: for protection against infection (survival): 100% lethal inoculum HUMC1 i.v., immediate treatment, FIG. 7A
# [3] = tested on: A. baumannii HUMC1; test: as above; type: in vivo, mice; conditions: for protection against infection (survival): 2×10^7 HUMC1 i.v., treated once i.v., FIG. 2; for survival: HUMC1 i.v., FIG. 3 / FIG. 7B
# Method: (§1) To determine if C8 could treat, inhibit and/or prevent A. baumannii induced sepsis, mice were infected i.v. via the tail-vein with 2×10^7 hyper-virulent A. baumannii HUMC1 and were treated once i.v. with either protein-G purified C8 mAb (approximately 10 or 20 μg doses) or an isotype-control antibody in a saline buffer. […] In a second experiment, mice were similarly infected and the C8 MAb was administered once i.v. in saline buffer at a low (5 μg) and very low (0.5 μg) dose.
# (§2) Male C3HeB/Fe mice (Jackson Labs) between the ages of 7-10 wk were used for all experiments. All animal work was conducted following approval by the Institutional Animal Use and Care Committee at the University of Southern California, in compliance with the recommendations in the Guide for the Care and Use of Laboratory Animals of the National Institutes of Health.
# (§3) For the bloodstream infection model, mice were infected intravenously via the tail-vein with designated inocula of A. baumannii isolates. An oropharyngeal model of aspiration pneumonia that recapitulates hospital- or ventilator-associated pneumonia (VAP) relevant to ICU populations was used. In brief, mice were sedated with isoflurane, hung by their maxillary incisors, tongues held to prevent swallowing, and 50 μL of bacterial inocula was placed in the trachea to allow inoculation of the organisms into the lungs by reflexive aspiration.
# [4] = tested on: A. baumannii HUMC1; test: Oropharyngeal aspiration pneumonia model, survival; type: in vivo, mice; conditions: for survival: oropharyngeal aspiration of HUMC1
# Method: as §1, §2, §3
molecule,measurement,setting,value
B1,physical binding site on the bacterial surface by electron microscopy,[1],bound to the pili on the bacterial surface; also recorded: binding to the pili
same,protection against infection (survival),[2]; high dose (approximately 150 μg),100%
same,protection against infection (survival),[2]; low dose (approximately 50 μg),100%
same,"survival, delayed treatment","[2]; i.v. infection, treated i.p. (50 μg) at 30 min post-infection, FIG. 7C",rescued from lethal infection
same,"survival, delayed treatment (monotherapy)","[2]; i.v. infection, treated i.p. at 1 hr post-infection, C8 150 μg, colistin 0.0125 mg/kg, FIG. 7D",not all mice survived; also recorded: minimally improved survival; also recorded: too late
same,protection against infection (survival),[3]; approximately 10 μg,100%
same,protection against infection (survival),[3]; approximately 20 μg,100%
same,survival,[3]; 0.5 μg once i.v. immediately,markedly improved survival; also recorded: significantly improved survival
same,survival,[3]; 5 μg once i.v. immediately,markedly improved survival; also recorded: fully protective
same,"survival, delayed treatment","[4]; lung model, therapy administered 4 hr post-infection",fully protective
same,survival,"[4]; 5 μg i.v., FIG. 4 / FIG. 9A",nearly fully protective; also recorded: markedly improved survival
same,survival,"[4]; 50 μg i.p., FIG. 9B",fully protective
